We go through 2 molecules from patent publication US20220137067A1.

For assay [1], the target named is biotin beta-amyloid 1-42 peptide (Anaspec) (human). Description: cell-based or functional assay. The settings on record: scale: % Relative Potency.
Assay [2] deals with Recombinant human amyloid β 1-42 peptide (rPeptide) (human). Put plainly: ELISA on plate-adsorbed recombinant human Aβ 1-42, anti-human IgG-HRP detection, parallel line analysis; mean of three assays. The settings on record: scale: % Relative Potency.

B1: crenezumab (antibody, INN chains, looked up, V domains shown)
VH: EVQLVESGGGLVQPGGSLRLSCAASGFTFSSYGMSWVRQAPGKGLELVASINSNGGSTYYPDSVKGRFTISRDNAKNSLYLQMNSLRAEDTAVYYCASGDYWGQGTTVTVSS
VL: DIVMTQSPLSLPVTPGEPASISCRSSQSLVYSNGDTYLHWYLQKPGQSPQLLIYKVSNRFSGVPDRFSGSGSGTDFTLKISRVEAEDVGVYYCSQSTHVPWTFGQGTKVEIKR
Regarding B1, the Phagocytosis Reporter Cell Potency in assay [1] turned out to be 99.

B2: crenezumab light stress sample (2.4 million lux hours) (antibody, INN chains, looked up, V domains shown)
VH: B1 VH
VL: B1 VL
modifications: light-stressed degraded sample
For the molecule B2, in assay [1], the Phagocytosis Reporter Cell Potency worked out at 86. For the same molecule, the Aβ Binding Potency (% Relative Potency) in assay [2] stood at 84.
